# Measured values: article PMC10279719
# What was measured:
# 14-3-3η 1-246 = 14-3-3η 1-246 (UniProt Q04917); assay: SPR, immobilized 14-3-3η
# 14-3-3ε 1-255 = 14-3-3ε 1-255 (UniProt P62258); assay: SPR, immobilized 14-3-3ε
# [1] = biological target: 14-3-3σ (Methods: 14-3-3ς, with an accession that is 14-3-3ζ) 1-245; assay: SPR, immobilized 14-3-3σ
# [2] = biological target: 14-3-3γ (residues 1-247) (human); assay: SPR; 14-3-3 isoforms amine coupled to a CM5 chip, tandem peptides as analytes (10 µM-10 nM for PEAK3 tandem-pS69, 20 µM-20 nM for all others); Biacore S200, 20 °C, HBS-TP; steady state, 1:1 model
# [3] = biological target: 14-3-3ε (residues 1-255) (human) (UniProt P62258); assay: as above
# [4] = biological target: 14-3-3η (residues 1-246) (human); assay: as above
# [5] = biological target: PEAK3 tandem-pS69 peptide (residues 54-74) (human); assay: ITC; binary; peptide in the cell (20 µM, or 16.8 µM after a buffer titration), protein in the syringe; 25 °C, 20 mM HEPES pH 7.4, 150 mM NaCl, 1 mM TCEP; single binding site model
# [6] = biological target: PEAK3^tandem-pS69 peptide (residues 54–74, phosphorylated at S69) (human); assay: ITC; binary; peptide (20 μM) in the cell, protein in the syringe (14-3-3ɣ 200 μM; CrkII^NSH3 140 or 400 μM); 25 °C, 20 mM HEPES pH 7.4, 150 mM NaCl, 1 mM TCEP; single site model
# [7] = biological target: PEAK3tandem-pS69 peptide (residues 54-74) (human); assay: ITC; 25 °C, peptide (20 µM) in the cell, protein in the syringe, sequential titrations; 20 mM HEPES pH 7.4, 150 mM NaCl, 1 mM TCEP; single binding site model
# 14-3-3γ 1-247 = 14-3-3γ 1-247 (UniProt P61981); assay: SPR, immobilized 14-3-3γ; conditions: reference: non-phosphorylated PEAK1tandem peptide; sites T1165
# [8] = biological target: PEAK3^(tandem, 54–74)pS69:14-3-3γ complex (human); assay: ITC; ternary, sequential; CrkII^NSH3 (400 μM, syringe) titrated into the peptide (16.8 µM) left in the cell after a first titration with 14-3-3ɣ; 25 °C, 20 mM HEPES pH 7.4, 150 mM NaCl, 1 mM TCEP
# [9] = biological target: full length CrkII, dimer (CrkII^FL dimer) (human) (UniProt P46108); assay: SEC; single purified proteins on Superdex 200 (purification and re-runs), 20 mM HEPES pH 7.5–8.5, 150 mM NaCl, 1 mM TCEP; oligomeric state
# [10] = biological target: PEAK2^IDR1 (human PEAK2 residues 802–1406) (human) (UniProt Q86YV5); assay: SEC-MALS; purified PEAK2^IDR1:CrkII^FL dimer complex (170 μg), Superdex 200 Increase 10/300, 20 mM HEPES pH 7.5, 150 mM NaCl, 1 mM TCEP
# [11] = biological target: PEAK1^IDR1 (residues 1082-1746), from insect cells, phosphorylated by Src (human) (UniProt Q9H792); assay: SPR; biotinylated PEAK proteins (with or without Src phosphorylation) captured with a biotin CAPture kit; Grb2 FL, Grb2 SH2, CrkII SH2, CrkII FL monomer or dimer as analytes; Biacore 8K+, 20 °C, HBS-TP with NaCl raised to 500 mM; 1 M NaCl regeneration; steady state
# [12] = biological target: PEAK1^IDR1 (residues 1082-1746), from insect cells (human) (UniProt Q9H792); assay: as above
# [13] = biological target: full length PEAK3 (PEAK3^FL, residues 1-473), from insect cells, phosphorylated by Src (human) (UniProt Q6ZS72); assay: as above
# [14] = biological target: PEAK2^IDR1 (residues 802-1406), from insect cells, phosphorylated by Src (human) (UniProt Q86YV5); assay: as above
# [15] = biological target: PEAK3 SH2-pY peptide 23-29 (Homo sapiens) (UniProt Q6ZS72); assay: ITC; conditions: cited from earlier work
# 14-3-3γ (human) = assay: SPR; Biacore S200; 14-3-3 isoforms amine coupled to CM5, peptides injected (10 µM–10 nM for PEAK3^tandem-pS69, 20 µM–20 nM for other peptides); 20 °C, HBS-TP; steady-state 1:1 fit
# [16] = biological target: PEAK3 tandem-pS69 : 14-3-3γ (K50E) complex (human); assay: ITC; ternary; CrkII NSH3 in the syringe titrated into the peptide:14-3-3γ complex left in the cell (16.8 µM) after the first titration; 25 °C, 20 mM HEPES pH 7.4, 150 mM NaCl, 1 mM TCEP; single binding site model
# [17] = reference: non-phosphorylated PEAK3tandem peptide, sites S69
# [18] = reference: non-phosphorylated PEAK1tandem peptide, sites T1165
# Chain of 14-3-3ε (residues 1-255) (human) (P62258 whole entry, the tested form may be a part): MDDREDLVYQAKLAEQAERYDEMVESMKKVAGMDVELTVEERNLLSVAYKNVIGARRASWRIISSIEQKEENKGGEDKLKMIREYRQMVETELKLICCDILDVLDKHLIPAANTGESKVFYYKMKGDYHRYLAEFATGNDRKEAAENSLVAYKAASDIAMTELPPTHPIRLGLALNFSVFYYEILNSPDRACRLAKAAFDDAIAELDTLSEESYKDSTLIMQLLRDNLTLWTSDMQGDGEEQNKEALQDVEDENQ
# Chain of PEAK1^IDR1 (residues 1082-1746), from insect cells, phosphorylated by Src (human) (Q9H792 1082-1746): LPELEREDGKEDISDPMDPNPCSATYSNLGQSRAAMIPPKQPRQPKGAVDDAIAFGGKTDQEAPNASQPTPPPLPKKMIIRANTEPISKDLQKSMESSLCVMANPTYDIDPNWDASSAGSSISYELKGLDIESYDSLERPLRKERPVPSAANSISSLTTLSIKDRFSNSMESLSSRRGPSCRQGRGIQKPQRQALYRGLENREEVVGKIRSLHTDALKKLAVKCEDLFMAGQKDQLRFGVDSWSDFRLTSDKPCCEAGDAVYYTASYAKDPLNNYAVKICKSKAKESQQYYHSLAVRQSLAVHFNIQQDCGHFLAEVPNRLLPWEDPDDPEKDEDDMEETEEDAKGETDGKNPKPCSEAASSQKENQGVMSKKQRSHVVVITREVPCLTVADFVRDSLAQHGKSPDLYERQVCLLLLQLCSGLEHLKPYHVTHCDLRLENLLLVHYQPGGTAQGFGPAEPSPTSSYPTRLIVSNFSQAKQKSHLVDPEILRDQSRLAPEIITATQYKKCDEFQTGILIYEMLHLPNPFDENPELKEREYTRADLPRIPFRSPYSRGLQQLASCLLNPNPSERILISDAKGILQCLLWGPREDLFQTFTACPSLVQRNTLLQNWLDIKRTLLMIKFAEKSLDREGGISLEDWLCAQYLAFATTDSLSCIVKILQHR
# Chain of PEAK2 tandem-pS826 peptide (residues 812-831) (peptide): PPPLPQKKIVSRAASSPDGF
# Chain of PEAK1^IDR1 (residues 1082-1746), from insect cells (human) (Q9H792 1082-1746): as the sequence (Q9H792 1082-1746) above
# Chain of PEAK3 SH2-pY peptide 23-29 (Homo sapiens) (Q6ZS72 whole entry, looked up, tested part not stated, canonical isoform): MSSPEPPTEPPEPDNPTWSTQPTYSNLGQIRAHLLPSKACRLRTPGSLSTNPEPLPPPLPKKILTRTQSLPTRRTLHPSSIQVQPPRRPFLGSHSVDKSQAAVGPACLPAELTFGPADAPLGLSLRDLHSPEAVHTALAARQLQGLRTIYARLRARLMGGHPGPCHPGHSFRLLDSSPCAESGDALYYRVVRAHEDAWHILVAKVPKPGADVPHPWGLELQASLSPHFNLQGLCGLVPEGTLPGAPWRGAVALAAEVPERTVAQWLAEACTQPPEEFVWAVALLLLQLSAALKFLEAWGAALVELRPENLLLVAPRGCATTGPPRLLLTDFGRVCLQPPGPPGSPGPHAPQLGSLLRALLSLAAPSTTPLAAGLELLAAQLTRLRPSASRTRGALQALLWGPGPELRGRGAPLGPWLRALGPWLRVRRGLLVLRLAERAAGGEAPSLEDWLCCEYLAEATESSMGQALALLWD
# Chain of full length PEAK3 (PEAK3^FL, residues 1-473), from insect cells, phosphorylated by Src (human) (Q6ZS72 whole entry, the tested form may be a part): as the sequence (Q6ZS72 whole entry, looked up, tested part not stated, canonical isoform) above
# Chain of PEAK2^IDR1 (human PEAK2 residues 802–1406) (human) (Q86YV5 802-1406): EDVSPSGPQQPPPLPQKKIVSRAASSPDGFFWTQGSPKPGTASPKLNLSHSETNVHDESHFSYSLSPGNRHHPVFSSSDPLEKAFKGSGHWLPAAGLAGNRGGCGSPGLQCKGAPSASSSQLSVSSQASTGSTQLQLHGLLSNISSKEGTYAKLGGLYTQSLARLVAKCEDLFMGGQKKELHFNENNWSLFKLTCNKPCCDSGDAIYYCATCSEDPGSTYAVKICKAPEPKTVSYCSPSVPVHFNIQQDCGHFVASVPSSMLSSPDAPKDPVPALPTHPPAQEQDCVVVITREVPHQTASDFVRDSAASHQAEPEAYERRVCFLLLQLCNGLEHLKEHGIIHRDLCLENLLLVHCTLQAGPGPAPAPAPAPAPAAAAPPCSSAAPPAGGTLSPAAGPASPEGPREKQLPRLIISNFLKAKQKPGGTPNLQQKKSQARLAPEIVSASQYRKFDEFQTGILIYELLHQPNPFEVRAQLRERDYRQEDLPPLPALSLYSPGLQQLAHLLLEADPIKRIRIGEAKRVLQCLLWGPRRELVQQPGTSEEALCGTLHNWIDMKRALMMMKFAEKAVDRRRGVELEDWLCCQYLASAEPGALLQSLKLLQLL
# Chain of PEAK2^IDR1 (residues 802-1406), from insect cells, phosphorylated by Src (human) (Q86YV5 802-1406): as above
substance,measurement,setting,value
PEAK3 54-74 (from UniProt Q6ZS72) PEAK3tandem-pS69 peptide,binding against the reference,14-3-3η 1-246; [17],stronger
same,binding against the reference,14-3-3ε 1-255; [17],stronger
same,binding against the reference,[1]; [17],stronger
PEAK2 tandem-pS826 peptide (residues 812-831),Kd,[2],1.35 µM
same,Kd,[3],7.42 µM
same,Kd,[4],1.94 µM
"PEAK1 tandem peptide, non-phosphorylated (residues 1152-1171)",Kd,[3],> 100 µM
14-3-3γ (gamma) (K50E) (natural protein),Kd,[5],5.99 µM
same,stoichiometry N,[5],0.726
14-3-3γ (natural protein),Kd,[6],0.13 µM
same,Kd,[7],0.126 µM
"PEAK2 tandem peptide, non-phosphorylated (residues 812-831)",Kd,[2],> 100 µM
same,Kd,[3],> 100 µM
same,Kd,[4],> 100 µM
PEAK1 1152-1171 (from UniProt Q9H792) PEAK1tandem-pT1165 peptide,binding against the reference,14-3-3η 1-246; [18],stronger
same,binding against the reference,14-3-3γ 1-247,stronger
same,binding against the reference,14-3-3ε 1-255; [18],stronger
same,binding against the reference,[1]; [18],stronger
"CrkII NSH3 domain (CrkII^NSH3, residues 134–191) (from UniProt P46108-1 134-191) (domain or fragment)",Kd,[8],3.6 µM
PEAK1 tandem-pT1165 peptide (residues 1152-1171),Kd,[3],5.39 µM
"full length CrkII, dimer (CrkII^FL dimer) (from UniProt P46108-1 1-304) (natural protein)",percent of the isolated protein that is dimer,[9],10%
same,stoichiometry N (CrkII chains per PEAK2 chain (2:2)),[10],1
"full length Grb2 (Grb2^FL, residues 1-217) (from UniProt P62993-1 1-217) (natural protein)",Kd,[11],4.3 µM
same,Kd,[12],> 50 µM
"CrkII SH2 domain (CrkII^SH2, residues 6-120) (from UniProt P46108-1 6-120) (domain or fragment)",Kd,[11],12.5 µM
same,Kd,[13],48 µM
same,Kd,[14],21 µM
"PEAK3 tandem peptide, non-phosphorylated (residues 54-74)",Kd,[3],> 100 µM
CrkII (from UniProt P46108),Kd,[15],7.8 µM
"PEAK3^tandem peptide, non-phosphorylated (residues 54–74; Ac-…-NH2)",Kd,14-3-3γ (human),> 10 µM
"CrkII N-terminal SH3 domain (CrkII^NSH3, residues 134-191) (from UniProt P46108-1 134-191) (domain or fragment)",Kd,[16],3.26 µM
same,stoichiometry N,[16],0.69
PEAK3 tandem-pS69 peptide (residues 54-74),Kd,[3],0.78 µM
